The record followed here is paper PMC3601957, “Structural Basis of Rap Phosphatase Inhibition by Phr Peptides” (PLoS Biology, 2013).

B1: RapF [B. subtilis] / PhrC [B. subtilis] (parent)
chain 1: MTGVISSSSIGEKINEWYMYIRRFSIPDAEYLRREIKQELDQMEEDQDLHLYYSLMEFRHNLMLEYLEPLEKMRIEEQPRLSDLLLEIDKKQARLTGLLEYYFNFFRGMYELDQREYLSAIKFFKKAESKLIFVKDRIEKAEFFFKMSESYYYMKQTYFSMDYARQAYEIYKEHEAYNIRLLQCHSLFATNFLDLKQYEDAISHFQKAYSMAEAEKQPQLMGRTLYNIGLCKNSQSQYEDAIPYFKRAIAVFEESNILPSLPQAYFLITQIHYKLGKIDKAHEYHSKGMAYSQKAGDVIYLSEFEFLKSLYLSGPDEEAIQGFFDFLESKMLYADLEDFAIDVAKYYHERKNFQKASAYFLKVEQVRQLIQGGVSLYEIEV
chain 2: ERGMT
B2: RapF [B. subtilis] / PhrF [B. subtilis] (parent)
chain 1: B1 chain 1
chain 2: QRGMI

One assay covers variants of B1. Kind of assay: thermal-shift assay (Sypro orange fluorescence). To be noted: with PhrC [B. subtilis], printed Tm without peptide: mutant 50.1 °C, wild type 49.5 °C.
With chain 1 N227A, the screen value was determined as 49.2 °C.

Still in this assay, the particulars now being: with PhrC [B. subtilis], printed Tm without peptide: mutant 51.3 °C, wild type 49.5 °C.
As to chain 1 E303A, the screen value came out at 53.8 °C.

The same assay, now with this note: with PhrC [B. subtilis], printed Tm without peptide: mutant 53.4 °C, wild type 49.5 °C.
As to chain 1 D194A, the screen value was found to be 52.3 °C.

Another assay covers variants of B2. Kind of assay: thermal-shift assay (Sypro orange fluorescence). To be noted: with PhrF [B. subtilis], printed Tm without peptide: mutant 50.1 °C, wild type 49.5 °C.
Regarding chain 1 N227A, the screen value amounted to 49.2 °C.

The same assay, now with this note: with PhrF [B. subtilis], printed Tm without peptide: mutant 53.4 °C, wild type 49.5 °C.
Take chain 1 D194A: the screen value was found to be 53.3 °C.
